Measured values: PMC12630144

Molecular target: WRKY50 (Arabidopsis thaliana, UniProt Q8VWQ5 1-173)
Assay: EMSA

WRKY50, sequence (Q8VWQ5 whole entry): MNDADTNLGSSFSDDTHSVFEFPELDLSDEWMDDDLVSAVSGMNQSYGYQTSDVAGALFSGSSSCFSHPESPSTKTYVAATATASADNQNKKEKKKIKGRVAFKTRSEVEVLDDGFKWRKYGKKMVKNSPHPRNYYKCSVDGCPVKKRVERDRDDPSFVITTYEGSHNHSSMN

B1: WK-box consensus probe (dsDNA)
DNA 1: ATCGTCTAGATCGATTTTTCCACACGATGCTAGTCGTCA
DNA 2: TGACGACTAGCATCGTGTGGAAAAATCGATCTAGACGAT
B1: binds.

B2: WT-box consensus probe (dsDNA)
DNA 1: ATCGTCTAGATCGAAAAAGTCAACCGATGCTAGTCGTCA
DNA 2: TGACGACTAGCATCGGTTGACTTTTTCGATCTAGACGAT
B2: binds.
